This assay deals with GABAA receptor β2 subunit extracellular domain fragment Gln25–Gly243 (human (abstract, Figure 1); 'bovine gene' in the methods) (UniProt P47870). Briefly: negative staining electron microscopy; single refolded subunit fragment, dialysed into 10 mM glycine pH 10.3; 2% uranyl acetate on carbon-coated copper grid, 120 kV TEM; 2D classification in Relion from manually picked particles of 20 micrographs.

Take “GABAA receptor β2 subunit extracellular domain fragment Gln25–Gly243 (from UniProt P47870 25-243) (domain or fragment)”: the stoichiometry N (in general, a count of units in the complex or per binding partner) stood at 5.

For the origin of these results see PMC11432007.
